# PMC9579160
# B1: ROC15(GARP)::mCherry (domain or fragment)
# chain: MGEEYADDGTTRAVKRPRLVWTPQLHRKFESAVIKLGEDKAVPKTIMQEMNIDGLTRENVASHLQKYRM
# Assays:
# [1] = target: His-tag-fused PHR domain of CraCRY (M1-A489) (C. reinhardtii); experiment: SEC; lit (blue light); inline SEC of the SAXS runs, Superdex 200, 50 mM HEPES pH 7.4, 150 mM NaCl, 5% glycerol, 25 °C, 2 to 10 mg/mL
# [2] = target: His-tag-fused full-length wild-type CraCRY (C. reinhardtii animal-like cryptochrome) (C. reinhardtii); experiment: as above
# [3] = target: Strep-tag-fused CraCRY::mCitrine (C. reinhardtii); experiment: single-molecule photobleaching step counting; lit (blue light): photobleaching steps of CraCRY::mCitrine protein complexes counted by TIRF microscopy
# [4] = target: Strep-tag-fused CraCRY::mCitrine (C. reinhardtii); experiment: single-molecule pull-down (TIRF colocalisation with photobleaching step counting); lit (blue light, 450 nm): Strep-tag-fused CraCRY::mCitrine tethered to the glass slide by streptavidin as bait, ROC15(GARP)::mCherry as prey
# [5] = target: Strep-tag-fused CraCRY::mCitrine (C. reinhardtii); experiment: as above; remark: listed apart in the source
molecule,measurement,setting,value
His-tag-fused PHR domain of CraCRY (M1-A489) (domain or fragment),stoichiometry N,[1],2
His-tag-fused full-length wild-type CraCRY (C. reinhardtii animal-like cryptochrome) (natural protein),stoichiometry N,[2],2
Strep-tag-fused CraCRY::mCitrine (natural protein),population of two-step bleaching,[3],25.1%
same,dimer fraction without colocalized ROC15,[4],15.5%
B1,fraction of interacting CraCRY (colocalization),[5],23.3%
same,percentage of interaction between ROC15 and CraCRY monomers,[5],25.1%
